T1: Flag-tagged USP37 (human, UniProt Q86T82 1-979)
T1 construct: Expressed in transfected HEK-293T cells and tested in lysate by co-immunoprecipitation; also called Flag-USP37; USP37 WT; not shown: 3xFLAG tag from the pCMV-3xFLAG vector
T1 sequence: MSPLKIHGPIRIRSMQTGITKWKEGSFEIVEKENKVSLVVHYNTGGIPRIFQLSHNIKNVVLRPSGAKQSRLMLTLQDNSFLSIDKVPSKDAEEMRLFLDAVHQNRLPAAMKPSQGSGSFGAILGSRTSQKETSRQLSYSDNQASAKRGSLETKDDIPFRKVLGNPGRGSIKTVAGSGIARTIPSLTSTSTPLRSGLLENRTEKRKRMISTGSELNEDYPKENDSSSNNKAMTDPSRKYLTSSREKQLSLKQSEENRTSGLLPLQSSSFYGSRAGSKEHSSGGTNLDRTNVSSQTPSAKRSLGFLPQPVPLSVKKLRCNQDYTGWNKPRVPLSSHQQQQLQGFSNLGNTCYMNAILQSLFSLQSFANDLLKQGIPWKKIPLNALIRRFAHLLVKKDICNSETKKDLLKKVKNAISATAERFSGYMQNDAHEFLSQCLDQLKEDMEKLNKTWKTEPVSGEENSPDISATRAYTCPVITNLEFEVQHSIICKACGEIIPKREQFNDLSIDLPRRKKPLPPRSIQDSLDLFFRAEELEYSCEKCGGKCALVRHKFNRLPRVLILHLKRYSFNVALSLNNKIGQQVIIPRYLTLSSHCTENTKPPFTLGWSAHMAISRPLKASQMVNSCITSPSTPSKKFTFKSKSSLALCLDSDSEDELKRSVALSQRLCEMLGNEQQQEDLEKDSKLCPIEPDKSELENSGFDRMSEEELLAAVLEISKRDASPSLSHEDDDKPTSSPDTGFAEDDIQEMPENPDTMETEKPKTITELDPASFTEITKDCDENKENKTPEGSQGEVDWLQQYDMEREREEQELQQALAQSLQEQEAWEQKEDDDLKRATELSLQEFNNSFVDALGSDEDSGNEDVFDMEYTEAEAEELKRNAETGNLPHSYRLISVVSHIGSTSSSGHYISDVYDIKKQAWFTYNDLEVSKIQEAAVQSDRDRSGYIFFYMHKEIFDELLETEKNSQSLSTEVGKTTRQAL


Tests used:
Flag-tagged USP37 = biological target: T1, Flag-tagged USP37; assay: co-immunoprecipitation from transfected HEK-293T cells
[1] = biological target: poly-ubiquitinated PLZF/RARA immunoprecipitated from HEK-293T cells expressing Flag-tagged PLZF/RARA and Myc-tagged Ub

| binding result (Flag-tagged USP37) | Binder | in vitro deubiquitination of poly-ubiquitinated PLZF/RARA (immunoblot) [1] |
| --- | --- | --- |
| no binding | HA-tagged RARA (receptor, UniProt P10276 1-462, looked up, Expressed in transfected HEK-293T cells; not shown: HA tag) MASNSSSCPTPGGGHLNGYPVPPYAFFFPPMLGGLSPPGALTTLQHQLPVSGYSTPSPATIETQSSSSEEIVPSPPSPPPLPRIYKPCFVCQDKSSGYHYGVSACEGCKGFFRRSIQKNMVYTCHRDKNCIINKVTRNRCQYCRLQKCFEVGMSKESVRNDRNKKKKEVPKPECSESYTLTPEVGELIEKVRKAHQETFPALCQLGKYTTNNSSEQRVSLDIDLWDKFSELSTKCIIKTVEFAKQLPGFTTLTIADQITLLKAACLDILILRICTRYTPEQDTMTFSDGLTLNRTQMHNAGFGPLTDLVFAFANQLLPLEMDDAETGLLSAICLICGDRQDLEQPDRVDMLQEPLLEALKVYVRKRRPSRPHMFPKMLMKITDLRSISAKGAERVITLKMEIPGSMPPLIQEMLENSEGLDTLSGQPGGGGRDGGGLAPPPGSCSPSLSPSSNRSSPATHSP |  |
|  | MBP-fused USP37 recombinant protein (protein) MSPLKIHGPIRIRSMQTGITKWKEGSFEIVEKENKVSLVVHYNTGGIPRIFQLSHNIKNVVLRPSGAKQSRLMLTLQDNSFLSIDKVPSKDAEEMRLFLDAVHQNRLPAAMKPSQGSGSFGAILGSRTSQKETSRQLSYSDNQASAKRGSLETKDDIPFRKVLGNPGRGSIKTVAGSGIARTIPSLTSTSTPLRSGLLENRTEKRKRMISTGSELNEDYPKENDSSSNNKAMTDPSRKYLTSSREKQLSLKQSEENRTSGLLPLQSSSFYGSRAGSKEHSSGGTNLDRTNVSSQTPSAKRSLGFLPQPVPLSVKKLRCNQDYTGWNKPRVPLSSHQQQQLQGFSNLGNTCYMNAILQSLFSLQSFANDLLKQGIPWKKIPLNALIRRFAHLLVKKDICNSETKKDLLKKVKNAISATAERFSGYMQNDAHEFLSQCLDQLKEDMEKLNKTWKTEPVSGEENSPDISATRAYTCPVITNLEFEVQHSIICKACGEIIPKREQFNDLSIDLPRRKKPLPPRSIQDSLDLFFRAEELEYSCEKCGGKCALVRHKFNRLPRVLILHLKRYSFNVALSLNNKIGQQVIIPRYLTLSSHCTENTKPPFTLGWSAHMAISRPLKASQMVNSCITSPSTPSKKFTFKSKSSLALCLDSDSEDELKRSVALSQRLCEMLGNEQQQEDLEKDSKLCPIEPDKSELENSGFDRMSEEELLAAVLEISKRDASPSLSHEDDDKPTSSPDTGFAEDDIQEMPENPDTMETEKPKTITELDPASFTEITKDCDENKENKTPEGSQGEVDWLQQYDMEREREEQELQQALAQSLQEQEAWEQKEDDDLKRATELSLQEFNNSFVDALGSDEDSGNEDVFDMEYTEAEAEELKRNAETGNLPHSYRLISVVSHIGSTSSSGHYISDVYDIKKQAWFTYNDLEVSKIQEAAVQSDRDRSGYIFFYMHKEIFDELLETEKNSQSLSTEVGKTTRQAL | the recombinant USP37 WT but not CA mutant could deubiquitinate PLZF/RARA in vitro |
|  | recombinant USP37 CA mutant (USP37 C350A) (protein) MSPLKIHGPIRIRSMQTGITKWKEGSFEIVEKENKVSLVVHYNTGGIPRIFQLSHNIKNVVLRPSGAKQSRLMLTLQDNSFLSIDKVPSKDAEEMRLFLDAVHQNRLPAAMKPSQGSGSFGAILGSRTSQKETSRQLSYSDNQASAKRGSLETKDDIPFRKVLGNPGRGSIKTVAGSGIARTIPSLTSTSTPLRSGLLENRTEKRKRMISTGSELNEDYPKENDSSSNNKAMTDPSRKYLTSSREKQLSLKQSEENRTSGLLPLQSSSFYGSRAGSKEHSSGGTNLDRTNVSSQTPSAKRSLGFLPQPVPLSVKKLRCNQDYTGWNKPRVPLSSHQQQQLQGFSNLGNTAYMNAILQSLFSLQSFANDLLKQGIPWKKIPLNALIRRFAHLLVKKDICNSETKKDLLKKVKNAISATAERFSGYMQNDAHEFLSQCLDQLKEDMEKLNKTWKTEPVSGEENSPDISATRAYTCPVITNLEFEVQHSIICKACGEIIPKREQFNDLSIDLPRRKKPLPPRSIQDSLDLFFRAEELEYSCEKCGGKCALVRHKFNRLPRVLILHLKRYSFNVALSLNNKIGQQVIIPRYLTLSSHCTENTKPPFTLGWSAHMAISRPLKASQMVNSCITSPSTPSKKFTFKSKSSLALCLDSDSEDELKRSVALSQRLCEMLGNEQQQEDLEKDSKLCPIEPDKSELENSGFDRMSEEELLAAVLEISKRDASPSLSHEDDDKPTSSPDTGFAEDDIQEMPENPDTMETEKPKTITELDPASFTEITKDCDENKENKTPEGSQGEVDWLQQYDMEREREEQELQQALAQSLQEQEAWEQKEDDDLKRATELSLQEFNNSFVDALGSDEDSGNEDVFDMEYTEAEAEELKRNAETGNLPHSYRLISVVSHIGSTSSSGHYISDVYDIKKQAWFTYNDLEVSKIQEAAVQSDRDRSGYIFFYMHKEIFDELLETEKNSQSLSTEVGKTTRQAL | the recombinant USP37 WT but not CA mutant could deubiquitinate PLZF/RARA in vitro |

— patent publication US20150148403A1 (ACADEMIA SINICA, published 2015)
